Results: the NTF2 design screens of Basanta et al. (2020)

Experiment: protease stability score; higher = more stable; yeast display proteolysis, trypsin and chymotrypsin;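 also: log10 excess protease needed over predicted unfolded state with 0 meaning unfolded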
Sequence “DEKQVHKMARQLVKALEHNDPQKVADLVDENVRASIGDTEYHGREHVKKAIKQMVDSIDHMRVRTVTAHNGTIDIDFQVVVNGRTERYQMRAEVHNGRIQSLRVDKR” has a protease stability score of 2.02. With “DEKQVLELIRDVMKHVQNGNQEEVKKHGKPSVEVILFNERYTGPEALVRLAEFAQKLGAQFEYKETRHEGNKVKTKVEVTFGGTTVRYEVEVEAEGGKVVKWEVRASDEFDERVKKS” the protease stability score was 1.09. With “DEKQVVKVAKRVVQAVFEGDEELMKKMGKEDVEVEVGDTKYKGVDQAVDLVRKYKEFGLEFELKKYEVKGDTVTFHAKLYAGDKTIDVTVHYRADDGKMDETKVELSEEADKAFKQH” the protease stability score was 1.1. Sequence “DEKRAHDFAQQVIRVIQDGDPREAQKLADENVRVEYGDRTVHGKEQISNFAQEFRTRVDHVKIDTWHAQGDKIVIHLKVNVNGREKRVVVVVEVHNGRVKSLVYKDG” has a protease stability score of 1.24. “DEKRALEVIKRYAEYLKRGNADEARKMGKEGVEAEFGDTHVHGADQVKEYVKKVKDVGAHVEYKEVEYKGDTVTVKTEVTRGDAKVTFEVKYQAKGDKVVNLEMKFNKEQMKEFKKS” gave a protease stability score of -0.015. For “DEKRARKLLEKAFELVQKGNKDTMRKIGKPNVKYKYVDQEYEGPEAMKFVIDVVKKIGAEVKKQEVEVKGDTAKATFQYRQGDKTVETRVEVKYEGDKLKEVRVEATDEVKKLVHQG”, the protease stability score was 0.009. In the case of “DEKREKDVAENFNTILENNDPDNLRKQAPPEAHAVIGDTRYRGMETFVTIMKKMWDEVDHFTVDDYQVQNGRVTIQAHVQVNGRQVTLHLEMIIDNGHITHIRMDPRQYRQFEG”, the protease stability score is reported as -0.434. With “DEKREQELAKKFADVFQRNNESELRKMIDENARYEIGDKTYRGTKAVKHVMKKVHDRADHVQVENFKAHNGTMELYLRYHVNGQDVRIIIELELRNGKVQHARYDVTSEEDRHNVEN” the protease stability score was 0.041. In the case of “DEKRFTELAEKAFKIIMNGNEEEARKMGKPNVEYKYGDKEFEGEEAMQYAVQLVIKVGAEAKVRRMEVRGDTMRADFQYTLGDKTVQTTAQVQYEGDYAKKAENELSDEAKKIMHQG”, the protease stability score is reported as 0.434. “DEKRLKELLEHVFKQVMNGNEEEVLKHGKPDVQYEYLTKRYEGEDAMRVVIKKIKRIGAEVQVKRREVHGNTMRADFDYHKGDQTVRTTAEAKYEGDQVKEFRVKVTEEHKQVIHQG” gave a protease stability score of 0.104. “DEKRLKEVAKKVFEAVQKGDTEKLKKLGKEDGKFQFLDHRYKGKEEYARIMQKLKKHGVQFEIKKYQVKDNKVRMETVVTYGDQTFTVEAEARYEGGQLDEARVEMTEEAKERLKQG” gave a protease stability score of -0.084. “DEKRLREIATRIVDALKTNNPEDFQKQLDEDAEVSIGDKTVRGQKQIVKMMDEFNSRVDEIDFKSYTAEGNQVVVNAVFNHNGRQQHLHFVFVFHNGKAKTVKAESS” gave a protease stability score of 1.12. With “DEKRLTELLEVMKHGDFDRLANLMDKDVRIEYGDKSVRGREQAQHLMEKQKKRADHVEWKEYHFQGDTVSVRLVVRINGKEVEYHQTYRVNNGKITDMEQRARDEDDERQLRRVEG” the protease stability score was -0.093. Sequence “DEKRMKELMDKVFRLVMEGNEEDVVKMGAPDVKYKYADHEYKGPEVMKEVAVMVRRLGAEVRVKRKEVHGDTAQADFDYRKGDTTVRTTARVKYEGDKVKRAEVEVSDEVKKIVHQG” has a protease stability score of 0.144. In the case of “DEKRMLKVAKEVAEMVRRGDADRVHKYLKEGGRAEVGDTEINGPDQMKEYVKKVKDQGAHNEYKETEYKGDTMTIKTQAHLGDATVDFEVHYQVKGDKVERVEVRFNKEQLKKFKDS”, the protease stability score is reported as -0.087. In the case of “DEKRMVELMRKIFKTIINGNEDEVKKILPPHGEYHYIDKKFEGKEVAEYIIKLVKKMGAEAKVKEQEVKGDTAKATFQYRKGDKTVQTKAEVKYEGDKMKKARVENTDEVRKVVHQG”, the protease stability score is reported as -0.024. In the case of “DEKRQAKEYVKHFDEVIETNDPDQLNELMDKDVRLDIGETKVSGRDDAKKWAKELVDQIDHVRVNVRKVDVQGDTIKVEVDIQIQYNGRHEQRVLHFTAVLSNGRAKIKRFTVE”, the protease stability score is reported as 0.559. Sequence “DEKRQQDQAKKIADALSTGDEDQFLQNMDPNAHVRVGDKTFHGRDDVRRMLREVNEHVDEINVHDVSVHNGQVDAVLVWEHNGRKQRKKVVVDRHNGRVHSVEIRDQ” has a protease stability score of -0.189. “DEKRVEELARKLFKYIINGDQEKVKTLLKPNVEYNYIDTQYKGPDAAVTMAQEVKKVGAEVKVREEKVEGNTAEVVFQYRVGDNTMQTKAQVHYEGDKVKEVRVELSEEVKKVVHQG” showed a protease stability score of 0.124. “DEKRVKELADKIFKDIINGNEEVVRKLGDPDVRYEYLDKKFRGEEAMIFIVQVVKRVGAEVKVERKEVRGDTAKADFRYRKGDTEVKTTAEVIYEGDKLKEARVHLTDEVKKVMTQG” showed a protease stability score of -0.006. Work on “DEKRVKEMVKKIFEVIKKGDEDKIVKQLMPNVEYHYIDQKFEGEDAARHIVKIVKHIGAEDREKKHEVNGDTMTVVFVYHNGDKTIQTKATVTYEGDVVKKAEVRLDDEVKKLARKG” yielded a protease stability score of 0.088. In the case of “DEKRVRRFAHKFIEVIERGDEHELRNLMDPDASMRVGDRTIHGRDEAARTIMKFLKRVDNLEVKSYDAQGDKVDIKVRASHDGKEHRITFDVKVHNGHIRHVTVKID”, the protease stability score is reported as 2.64. Work on “DEKRYEELVKKAFDVIRNGNEEEMRKLGKPDVEYKYADKEFEGEEAMQTMVQVVKRIGAKVEIQHEEVHGDTAHAVFVYKKGNRTAQTTVKVVYEGDKLKKAEVKMTDEVRKVLHDG” yielded a protease stability score of -0.024. Sequence “DEKRYKELADKAFKYIVNGNEEQAIKMLKPNVRYEYVDKEMKGEEAAKEIVQLMQKVGAKVETQEKEVHGDTMRAVFQYHDGDTTVQTTAEVVYKGDKVEKVRVEISEEVKKIVERG” has a protease stability score of -0.265. For “DEKRYKELFETVFKMVINGDEEDVKKIINPNGKYQYGDKEFEGPEVAHELVRVVKEMGAEVKETRYEVNGDTARADFKYINGDQEVTTTAEAVYKGDKMEEARVHISEEVKKVLHQG”, the protease stability score was -0.143. Sequence “DEKRYTEIAEKVFKYARNGNEEEMRKDGMPDLKYKYIDKEYEGEDAMRFVVELVKKIGAEDRQEKQEVKGNTAEAVFVYHNGDETVTTKAQVHYEGDKVKEVRVELTDEVKKVIKKG” has a protease stability score of 0.135. Sequence “DEKTAASQFFRDLRHALRQGDETRIMELADENVEFQIGDKRWHGRESAMELARHVHNRADTVELRIEDLKIDNGQMNADVLITFNHNGRNETQRVNVRARIHNGHVVLVEVHQK” has a protease stability score of 1.62. With “DEKTAQDTAKEIVKYWEQGDFEKLNKNADKNVRIRYGDKDYSGRDNFQELQKKFREHVDHVEVHSVDVEGDKIRVVIMFVVNGKHMVMEFVVDYHNGHLKSVSVDARNPDQKKRADK” the protease stability score was 0.46. Work on “DEKTERDQARKLIHILEEGDEEKMANLMDENAHIQVGDTTYSGREDVRRFMQSWSERVDRFSVHSITAHNGKIDIDVEFVVNGRKVQMDLRFHVENGRIKTDKFQFRDEDKFKDMQS” yielded a protease stability score of 0.295. Work on “DEKTKAKQLADTLKRLAESGDFVRIAQLFDENARLNYGDKTVHGREQAEDQAKKIHDQIDHMELELKSVSVNENSVQISMEVVWHHNGNHHRFEVVVRIDVDENKNRARNADYQ” yielded a protease stability score of 0.921. “DEKTLKELADHLIRAIETGNEHQFQKMADPNVKAQYGDSKVRGREDLAEYFKTLVDRADHIQFDHWDAQGNKVTMHFVLRVNGVDVRIVVFIHVTNGKIKHVRVHVTDPQEFRRMQG” gave a protease stability score of 0.515. For “DEKTVKEVVDKWIKALENNDEEKLQKMLKPNGEAHYADTTYKGKDQIVKYVVEFMRRGVELQVKEQEVKGGRAEYQVDATLGGDTVTLRVVIYVKDGVVDKVEFRDDEKVQKMMKKG”, the protease stability score was 0.105. With “DEKVHKIFEHYMTAVNRNNPDRAMRQVDPNAHVEVGDRQISGRENLRETVEKLNKHARINYRDFDAELHGDKVNVDLDIRMEYNGKPYSDHVIIIFRAQGDKIKHMTNDIDPDVEHHFEQ” the protease stability score was 0.081. “DEKVKELFKRLLRALHTGDEEQARRLVDPNARIQVGDQRYHGMDEALRQMLHNMQDIEVSQRYIEVDVSGDRVHYRAEVEKTHNGKPEREQYSATVHAHNGKVVQVEMHTDK” gave a protease stability score of 0.069. Sequence “DEKVLKALHDVFRAQEHGDERRAMRNLDPNVKIDVGDEQYHGRESWARRIVQERRDMKVEYHKIDFDDRGDKAKITARYEFTENGDPRHVTIDMEAKATNGKVTTMEQRDDG” has a protease stability score of -0.103. With “DEKVQDLVQKFVKWLAQGDHKKLADLLDPNARLHIGEFNVHGREQLREAVTRLQTRMHLSVNRVDASASNGKIKASAKFTVKHNGQPDKKHLNFSAVARGEKVKHMEASDDQ” the protease stability score was -0.287.
